Measured values as given in IntAct's records for PubMed 19581362.

B1: Chemotaxis protein CheA (Escherichia coli (strain K12)), P07363 (parent)
chain: MSMDISDFYQTFFDEADELLADMEQHLLVLQPEAPDAEQLNAIFRAAHSIKGGAGTFGFSVLQETTHLMENLLDEARRGEMQLNTDIINLFLETKDIMQEQLDAYKQSQEPDAASFDYICQALRQLALEAKGETPSAVTRLSVVAKSEPQDEQSRSQSPRRIILSRLKAGEVDLLEEELGHLTTLTDVVKGADSLSAILPGDIAEDDITAVLCFVIEADQITFETVEVSPKISTPPVLKLAAEQAPTGRVEREKTTRSNESTSIRVAVEKVDQLINLVGELVITQSMLAQRSSELDPVNHGDLITSMGQLQRNARDLQESVMSIRMMPMEYVFSRYPRLVRDLAGKLGKQVELTLVGSSTELDKSLIERIIDPLTHLVRNSLDHGIELPEKRLAAGKNSVGNLILSAEHQGGNICIEVTDDGAGLNRERILAKAASQGLTVSENMSDDEVAMLIFAPGFSTAEQVTDVSGRGVGMDVVKRNIQKMGGHVEIQSKQGTGTTIRILLPLTLAILDGMSVRVADEVFILPLNAVMESLQPREADLHPLAGGERVLEVRGEYLPIVELWKVFNVAGAKTEATQGIVVILQSGGRRYALLVDQLIGQHQVVVKNLESNYRKVPGISAATILGDGSVALIVDVSALQAINREQRMANTAA
partner: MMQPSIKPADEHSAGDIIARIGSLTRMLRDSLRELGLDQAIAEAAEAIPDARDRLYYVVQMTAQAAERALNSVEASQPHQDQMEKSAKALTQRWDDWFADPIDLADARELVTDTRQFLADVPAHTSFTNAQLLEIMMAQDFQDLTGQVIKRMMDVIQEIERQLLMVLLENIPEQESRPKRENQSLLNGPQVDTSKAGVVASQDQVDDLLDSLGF

Variants of: B1
Settings: with chez_ecoli cheZ

Variant	effect of a mutation on the interaction
L123C	decreasing interaction strength
R124C	decreasing interaction strength
Y118C	decreasing interaction strength
L126C	decreasing interaction strength
